To fix the notation:
B1: KRT13 (parent)
chain: YGGGLGGGFGGGFAGGFVDFGACD
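Also: lentivirally expressed fusions sorted by FACS into six bins by GFP to DsRed ratio, PSI derived from sequencing read proportions per bin multiplied by bin number.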

In the series the parent is B1. As to the kind of experiment: protein stability index of a GFP-peptide fusion (GPS, HEK-293T) (PSI 1-6); higher = more stable. The conditions noted are these: c terminus: a fixed tail appended.
YGGGLGRGFGGGFAGGFVDFGACD: the protein stability index stood at 1.74.
In the case of YGGGLGMGFGGGFAGGFVDFGACD it was 2.46.
In the case of YGGGLGDGFGGGFAGGFVDFGACD it was 1.89; in that of YGGGLGCGFGGGFAGGFVDFGACD, 3.15.
Turning to YGGGLGGGFGGGFAGGFVDFGACW, the protein stability index amounted to 3.82.
Then YGGGLGGGFGGGFAGGFVDFGACP, with 1.85.
In the case of YGGGLGGGFGGGFAGGFVDFGACE it was 2.57.
Then YGGGLGGGFGGGFAGGFVDFGACS, with 2.43.
As for YGGGLGGGFGGGFAGGFVDFGACK, the protein stability index was 1.43.
In the case of YGGGLGGGFGGGFAGGFVDFGACQ it was 1.91.
Consider YGGGLGGGFGGGFAGGFVDFGACV, for which the protein stability index stood at 2.45.
In the case of YGGGLGGGFGGGFAGGFVDFGACI it was 5.23; in that of YGGGLGGGFGGGFAGGFGDFGACD, 3.27.
Then YGGGLGGGFGGGFAGGFDDFGACD, with 1.93.
In the case of YGGGLGGGFGGGFAGGFTDFGACD it was 2.17; in that of YGGGLGGGFGGGFAGGFMDFGACD, 1.65.
Turning to YGGGLGGGFGGGFAGGFWDFGACD, the protein stability index amounted to 2.79.
Then YGGGLGGGFGGGFAGGFNDFGACD, with 1.5; and YGGGLGGGFGGGFAGGFSDFGACD, with 3.77; and YGGGLGGGFGGGFAGGFYDFGACD, with 1.58.
Then YGGGLGGGFGGGFAGGFLDFGACD, with 1.38; and YGGGLGGGFGGGFAGGFVKFGACD, with 2.
In the case of YGGGLGGGFGGGFAGGFVVFGACD it was 2.61; in that of YGGGLGGGFGGGFAGGFVGFGACD, 2.41; in that of YGGGLGGGFGGGFAGGFVAFGACD, 3.27.
In the case of YGGGLGGGFGGGFAGGFVRFGACD, the protein stability index came to 1.96.
Regarding YGGGLGGGFGGGFAGGFVYFGACD, the protein stability index is 2.33.
Then YGGGLGGGFGGGFPGGFVDFGACD, with 2.02; and YGGGLGGGFGGGFFGGFVDFGACD, with 2.8.
In the case of YGGGLGGGFGGGFIGGFVDFGACD it was 2.46; in that of YGGGLGGEFGGGFAGGFVDFGACD, 1.72; in that of YGGGLGGPFGGGFAGGFVDFGACD, 1.75.
Then YGGGLGGTFGGGFAGGFVDFGACD, with 1.77; and YGGGLGGGDGGGFAGGFVDFGACD, with 2.46.
In the case of YGGGLGGGAGGGFAGGFVDFGACD, the protein stability index was 1.68.
Then YGGGLGGGHGGGFAGGFVDFGACD, with 2.5; and YGGGLGGGVGGGFAGGFVDFGACD, with 1.94; and YGGGLGGGCGGGFAGGFVDFGACD, with 1.79.
Then YGGGLGGGIGGGFAGGFVDFGACD, with 1.49.
Then YGGGFGGGFGGGFAGGFVDFGACD, with 1.38; and YGGGNGGGFGGGFAGGFVDFGACD, with 1.84.
Turning to YGGGMGGGFGGGFAGGFVDFGACD, the protein stability index was 1.93.
In the case of YGGGTGGGFGGGFAGGFVDFGACD it was 2.22; in that of YGGGGGGGFGGGFAGGFVDFGACD, 1.87.
In the case of YGGGPGGGFGGGFAGGFVDFGACD it was 1.95.
Turning to YGGGHGGGFGGGFAGGFVDFGACD, the protein stability index worked out at 1.8.
In the case of YGGGLGGGFGGGFAGGFVDFGAKD it was 2.01; in that of YGGGLGGGFGGGFAGGFVDFGATD, 1.81.
Then YGGGLGGGFGGGFAGGFVDFGAVD, with 1.22; and YGGGLGGGFGGGFAGGFVDFGALD, with 1.72.
Then YGGGLGGGFGGGFAGGFVDFGAGD, with 1.83.
For the variant YGGGLGGGFGGGFAGGFVDFGAPD, the protein stability index came out at 1.8.
In the case of YGGGLGGGFGGGFAGGFVDFGAYD it was 1.6; in that of YGGGLGGGFGGGFAGGFVDFGARD, 2.79.
Then YGGGLGGGFGGGFAGGFVDFGTCD, with 1.9; and YGGGLGGGFGGGFAGGFVDFGKCD, with 1.98.
In the case of YGGGLGGGFGGGFAGGFVDFGYCD it was 1.99; in that of YGGGLGGGFGGGFAGGFVDFGNCD, 1.95.
As to YGGGLGGGFGGGFAGGFVDFGPCD, the protein stability index was found to be 2.27.
Then YGGGLGGGFGGGFAGGFVDFGDCD, with 1.42; and YGGGLGGGFGGGFAGGFVDFGVCD, with 2.4.
With YGGGLGGGFGGGFAGGFVDFGICD, the protein stability index worked out at 1.33.
Regarding YGGGLGGGFGGGFAGGFVDNGACD, the protein stability index was 2.31.
Then YGGGLGGGFGGGFAGGFVDQGACD, with 2.36; and YGGGLGGGFGGGFAGGFVDTGACD, with 2.22; and YGGGLGGGFGGGFAGGFVDAGACD, with 1.69.
In the case of YGGGLGGGFGGGFAGGFVDYGACD it was 1.5.
Regarding YGGGLGGGFGGGFAGGFVDMGACD, the protein stability index was 1.53.
In the case of YGGGLGGGFGGGFAGGFVDIGACD it was 1.27; in that of YGGGLGGGFGGGFAGGFVDGGACD, 1.75.
In the case of YGGGLGGGFGGGFAGNFVDFGACD it was 1.71; in that of YGGGLGGGFGGGFAGAFVDFGACD, 1.81; in that of YGGGLGGGFGGGFAGYFVDFGACD, 2.16.
In the case of YGGGLGGGFGGGFAGRFVDFGACD it was 1.8; in that of YGGGLGGGFGGGFAGDFVDFGACD, 1.94; in that of YGGGLGGGFGGGFAGMFVDFGACD, 2.76.
YGGGLGGGFGGGFAGTFVDFGACD: the protein stability index came to 2.02.
On to YGGGLGGGFGGGFAGQFVDFGACD, for which the protein stability index came to 2.36.
For YGGGLGGGFGGGFAGWFVDFGACD, the protein stability index worked out at 3.21.
Then EGGGLGGGFGGGFAGGFVDFGACD, with 3.3; and HGGGLGGGFGGGFAGGFVDFGACD, with 2.9.
In the case of VGGGLGGGFGGGFAGGFVDFGACD it was 3.53; in that of DGGGLGGGFGGGFAGGFVDFGACD, 3.61; in that of NGGGLGGGFGGGFAGGFVDFGACD, 3.65.
In the case of CGGGLGGGFGGGFAGGFVDFGACD it was 1.52.
QGGGLGGGFGGGFAGGFVDFGACD: the protein stability index is 3.12.
In the case of IGGGLGGGFGGGFAGGFVDFGACD it was 2.54; in that of FGGGLGGGFGGGFAGGFVDFGACD, 1.16.
As for YGGGLGGGFGGEFAGGFVDFGACD, the protein stability index amounted to 1.84.
Then YGGGLGGGFGGWFAGGFVDFGACD, with 1.34; and YGGGLGGGFGGKFAGGFVDFGACD, with 1.69.
Then YGGGLGGGFGGYFAGGFVDFGACD, with 3.95.
Turning to YGGGLGGGFGGSFAGGFVDFGACD, the protein stability index was found to be 1.77.
Then YGGGLGGGFGGGFATGFVDFGACD, with 1.61.

These data come from the supplement of paper PMC10567573.
